As a reminder, the Kd is the equilibrium constant for the complex coming apart. The low end stands for tighter binding, the high end for weaker binding.

Series [1] addresses T1, TRF2 (Homo sapiens, UniProt Q15554 1-542). Put plainly: EMSA; text gives ~100 nM, binds weakly; EMSA buffer, pH and temperature not given in the material. (In general: In EMSA bound probe runs differently from free probe, usually more slowly.)
In the next series the target is RECQL1 (Homo sapiens, UniProt P46063 1-649). The experiment in a line: EMSA; EMSA buffer, pH and temperature not given in the material.
For series [2], the target named is T2, TRF1 (Homo sapiens, UniProt P54274 1-439). The experiment in a line: EMSA; text gives ~50 nM; EMSA buffer, pH and temperature not given in the material.
T2 sequence (P54274 whole entry): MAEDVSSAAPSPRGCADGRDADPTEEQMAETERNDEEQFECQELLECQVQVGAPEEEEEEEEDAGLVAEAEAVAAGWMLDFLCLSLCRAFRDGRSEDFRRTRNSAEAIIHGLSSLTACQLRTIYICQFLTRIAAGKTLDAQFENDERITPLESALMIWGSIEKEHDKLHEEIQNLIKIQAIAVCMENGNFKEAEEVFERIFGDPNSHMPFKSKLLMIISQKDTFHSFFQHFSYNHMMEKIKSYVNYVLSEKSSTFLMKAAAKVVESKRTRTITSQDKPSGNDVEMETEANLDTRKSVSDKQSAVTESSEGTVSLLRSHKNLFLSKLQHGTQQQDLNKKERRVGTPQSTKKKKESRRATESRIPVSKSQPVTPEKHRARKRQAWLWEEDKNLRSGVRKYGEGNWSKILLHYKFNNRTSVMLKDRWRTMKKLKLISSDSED
Series [3] addresses T1, TRF2. The experiment in a line: EMSA; EMSA buffer, pH and temperature not given in the material.
The target of series [4] is T2, TRF1. The description is as above.
The target in series [5] is T3, Recombinant His-tagged RECQL1 (human, UniProt P46063 1-649).
T3 sequence (looked up): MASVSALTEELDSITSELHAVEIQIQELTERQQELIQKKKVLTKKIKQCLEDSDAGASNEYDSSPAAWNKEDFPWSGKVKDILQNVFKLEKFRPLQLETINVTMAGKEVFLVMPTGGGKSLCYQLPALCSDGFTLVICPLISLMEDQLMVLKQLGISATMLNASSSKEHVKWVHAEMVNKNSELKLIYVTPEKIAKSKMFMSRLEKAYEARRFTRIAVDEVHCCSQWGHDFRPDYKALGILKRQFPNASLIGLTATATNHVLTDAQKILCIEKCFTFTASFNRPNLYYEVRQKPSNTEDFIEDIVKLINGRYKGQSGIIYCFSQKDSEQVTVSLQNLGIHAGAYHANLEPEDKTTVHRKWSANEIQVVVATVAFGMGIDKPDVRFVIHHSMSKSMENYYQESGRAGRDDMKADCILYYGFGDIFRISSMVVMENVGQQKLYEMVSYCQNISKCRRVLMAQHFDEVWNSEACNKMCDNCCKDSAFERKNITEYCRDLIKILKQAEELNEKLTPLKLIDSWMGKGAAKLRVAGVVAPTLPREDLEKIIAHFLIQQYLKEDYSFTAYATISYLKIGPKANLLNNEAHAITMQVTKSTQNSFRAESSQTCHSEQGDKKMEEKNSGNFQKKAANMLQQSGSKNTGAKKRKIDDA
Put plainly: cell-based or functional assay.

B1: DL1 (telomeric D-loop) (structured_DNA)
DNA 1: CACCATCCAGTTCTCTTTTGAGAACTGGATGGTGTTAGGGTTAGGGTTAGGGTTAGGGTTAACGCTC
DNA 2: TCAAGCTCGGTCTGCAGTCAGGATGATTGTGAGCGTTAACCCTAACCCTAACCCTAACCCTAATCTGCACTCGAGACTCACGTCCTGGTCACG
DNA 3: CGTGACCAGGACGTGAGTCTCGAGTGCAGACCTTTTTTTTTTTTTTTTTTTTTTTTTTTTTTTACAATCATCCTGACTGCAGACCGAGCTTGA
B1: the figures for the Kd in the series with TRF2 [1], with RECQL1 and with TRF1 [2] were 90 ± 12.5 nM, 10 ± 2.5 nM and 40 ± 5 nM, respectively.

B2: DL4 (telomeric D-loop with two 8-oxoG) (structured_DNA)
DNA 1: CACCATCCAGTTCTCTTTTGAGAACTGGATGGTGTTAGGGTTAGGGTTAGGGTTAGGGTTAACGCTC
DNA 2: TCAAGCTCGGTCTGCAGTCAGGATGATTGTGAGCGTTAACCCTAACCCTAACCCTAACCCTAATCTGCACTCGAGACTCACGTCCTGGTCACG
DNA 3: CGTGACCAGGACGTGAGTCTCGAGTGCAGACCTTTTTTTTTTTTTTTTTTTTTTTTTTTTTTTACAATCATCCTGACTGCAGACCGAGCTTGA
modifications: 8-oxo-dG at positions 39 and 57 of strand 1 (written as G)
Take B2: the Kd in the series with RECQL1 is 12.5 ± 5 nM; in the series with TRF2 [3] it was 125 ± 10 nM; with TRF1 [4] it was 50 ± 10 nM.

B3: Recombinant histidine-tagged human TRF2 (natural protein, UniProt Q15554 1-542, looked up)
chain: MAAGAGTAGPASGPGVVRDPAASQPRKRPGREGGEGARRSDTMAGGGGSSDGSGRAAGRRASRSSGRARRGRHEPGLGGPAERGAGEARLEEAVNRWVLKFYFHEALRAFRGSRYGDFRQIRDIMQALLVRPLGKEHTVSRLLRVMQCLSRIEEGENLDCSFDMEAELTPLESAINVLEMIKTEFTLTEAVVESSRKLVKEAAVIICIKNKEFEKASKILKKHMSKDPTTQKLRNDLLNIIREKNLAHPVIQNFSYETFQQKMLRFLESHLDDAEPYLLTMAKKALKSESAASSTGKEDKQPAPGPVEKPPREPARQLRNPPTTIGMMTLKAAFKTLSGAQDSEAAFAKLDQKDLVLPTQALPASPALKNKRPRKDENESSAPADGEGGSELQPKNKRMTISRLVLEEDSQSTEPSAGLNSSQEAASAPPSKPTVLNQPLPGEKNPKVPKGKWNSSNGVEEKETWVEEDELFQVQAAPDEDSTTNITKKQKWTVEESEWVKAGVQKYGEGNWAAISKNYPFVNRTAVMIKDRWRTMKRLGMN
Regarding B3, in series [5], the “helicase activity of RECQL1 left on the 8-oxoguanine telomeric D-loop DL4 with TRF2 at a molar ratio of 1:4 (RECQL1:TRF2)” value was ~40%.
